In patent US20140087995A1 (published 2014):
Numbered stars: 1 amine (or outer) side, 2 acyl side, 3 side chain; on linkers, the order of the positions; unused ones are H or OH. Bridge positions count the residues as written; N and C are the ends. Side chains are listed from the residue outwards. Ends that are not written are not given here. * marks the point of attachment. C20 diacid = O=C(O)CCCCCCCCCCCCCCCCCCC(=O)*; γGlu = O=C(O)[C@H](CCC(=O)[*:2])N[*:1]

T1: human calcitonin receptor (human, UniProt P30988 25-474)
T1 sequence (looked up): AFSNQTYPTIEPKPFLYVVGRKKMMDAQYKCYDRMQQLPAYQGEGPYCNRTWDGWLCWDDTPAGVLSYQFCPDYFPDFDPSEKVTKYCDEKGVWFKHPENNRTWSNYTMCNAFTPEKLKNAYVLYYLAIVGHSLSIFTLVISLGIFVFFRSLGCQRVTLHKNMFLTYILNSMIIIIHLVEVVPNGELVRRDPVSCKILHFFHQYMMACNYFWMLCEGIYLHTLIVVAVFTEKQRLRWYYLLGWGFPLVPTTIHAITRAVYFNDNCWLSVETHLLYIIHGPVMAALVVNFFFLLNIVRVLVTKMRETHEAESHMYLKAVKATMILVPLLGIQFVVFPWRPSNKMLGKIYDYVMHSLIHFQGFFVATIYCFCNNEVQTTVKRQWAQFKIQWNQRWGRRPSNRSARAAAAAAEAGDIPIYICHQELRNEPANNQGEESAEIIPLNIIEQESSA

T2: human amylin receptor (amylin 3(a) receptor: human calcitonin receptor coexpressed with RAMP-3) (human, UniProt P30988 25-474; O60896 24-148)
T2 sequence (looked up) 1: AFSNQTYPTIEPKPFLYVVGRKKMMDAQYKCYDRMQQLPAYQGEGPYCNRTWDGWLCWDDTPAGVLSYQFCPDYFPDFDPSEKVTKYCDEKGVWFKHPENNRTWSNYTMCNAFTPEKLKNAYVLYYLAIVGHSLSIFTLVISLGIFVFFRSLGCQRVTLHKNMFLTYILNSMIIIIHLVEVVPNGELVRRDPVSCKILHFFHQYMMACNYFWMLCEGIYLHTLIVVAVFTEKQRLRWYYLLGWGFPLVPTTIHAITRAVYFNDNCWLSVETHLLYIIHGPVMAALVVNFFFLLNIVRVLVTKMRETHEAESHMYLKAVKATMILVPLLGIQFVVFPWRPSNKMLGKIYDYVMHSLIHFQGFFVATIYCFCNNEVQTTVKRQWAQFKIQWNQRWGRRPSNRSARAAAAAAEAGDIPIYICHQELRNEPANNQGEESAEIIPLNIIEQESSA
T2 sequence (looked up) 2: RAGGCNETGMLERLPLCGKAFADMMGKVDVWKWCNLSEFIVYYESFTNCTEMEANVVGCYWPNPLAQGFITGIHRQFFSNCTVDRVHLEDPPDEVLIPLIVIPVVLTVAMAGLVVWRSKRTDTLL


Experiments:
[1] = molecular target: T1, human calcitonin receptor; experiment: cell-based or functional assay
[2] = molecular target: T2, human amylin receptor (amylin 3(a) …); experiment: cell-based or functional assay

Row | hCTR funct. EC50 (pM) [1] | hAmylin-R funct. EC50 (pM) [2] | Ratio hCT/hAmylin funct. [1] | Binder
1 | 16800 pM | 405 pM |  | K([γGlu-C20 diacid])CNTATCATQRLARFLRHSSPNFGAIPSSTNVGSNTY-NH2 (disulfide 2-7; N-terminus assumed; SMILES CC[C@H](C)[C@H](NC(=O)[C@H](C)NC(=O)CNC(=O)[C@H](Cc1ccccc1)NC(=O)[C@H](CC(N)=O)NC(=O)[C@@H]1CCCN1C(=O)[C@H](CO)NC(=O)[C@H](CO)NC(=O)[C@H](Cc1c[nH]cn1)NC(=O)[C@H](CCCNC(=N)N)NC(=O)[C@H](CC(C)C)NC(=O)[C@H](Cc1ccccc1)NC(=O)[C@H](CCCNC(=N)N)NC(=O)[C@H](C)NC(=O)[C@H](CC(C)C)NC(=O)[C@H](CCCNC(=N)N)NC(=O)[C@H](CCC(N)=O)NC(=O)[C@@H](NC(=O)[C@H](C)NC(=O)[C@@H]1CSSC[C@H](NC(=O)[C@@H](N)CCCCNC(=O)CC[C@H](NC(=O)CCCCCCCCCCCCCCCCCCC(=O)O)C(=O)O)C(=O)N[C@@H](CC(N)=O)C(=O)N[C@@H]([C@@H](C)O)C(=O)N[C@@H](C)C(=O)N[C@@H]([C@@H](C)O)C(=O)N1)[C@@H](C)O)C(=O)N1CCC[C@H]1C(=O)N[C@@H](CO)C(=O)N[C@@H](CO)C(=O)N[C@H](C(=O)N[C@@H](CC(N)=O)C(=O)N[C@H](C(=O)NCC(=O)N[C@@H](CO)C(=O)N[C@@H](CC(N)=O)C(=O)N[C@H](C(=O)N[C@@H](Cc1ccc(O)cc1)C(N)=O)[C@@H](C)O)C(C)C)[C@@H](C)O, also called compound 83) [N^ε1-[(4S)-4-carboxy-4-(19-carboxynonadecanoylamino)butanoyl]-[Arg14,Arg17,Pro21,Pro27]-h-amylin]
2 | 3880 pM | 146 pM |  | K([γGlu-C20 diacid])CNTATCATQRLAHFLRHSSPNFGAIPSSTNVGRNTY-NH2 (disulfide 2-7; N-terminus assumed; SMILES CC[C@H](C)[C@H](NC(=O)[C@H](C)NC(=O)CNC(=O)[C@H](Cc1ccccc1)NC(=O)[C@H](CC(N)=O)NC(=O)[C@@H]1CCCN1C(=O)[C@H](CO)NC(=O)[C@H](CO)NC(=O)[C@H](Cc1c[nH]cn1)NC(=O)[C@H](CCCNC(=N)N)NC(=O)[C@H](CC(C)C)NC(=O)[C@H](Cc1ccccc1)NC(=O)[C@H](Cc1c[nH]cn1)NC(=O)[C@H](C)NC(=O)[C@H](CC(C)C)NC(=O)[C@H](CCCNC(=N)N)NC(=O)[C@H](CCC(N)=O)NC(=O)[C@@H](NC(=O)[C@H](C)NC(=O)[C@@H]1CSSC[C@H](NC(=O)[C@@H](N)CCCCNC(=O)CC[C@H](NC(=O)CCCCCCCCCCCCCCCCCCC(=O)O)C(=O)O)C(=O)N[C@@H](CC(N)=O)C(=O)N[C@@H]([C@@H](C)O)C(=O)N[C@@H](C)C(=O)N[C@@H]([C@@H](C)O)C(=O)N1)[C@@H](C)O)C(=O)N1CCC[C@H]1C(=O)N[C@@H](CO)C(=O)N[C@@H](CO)C(=O)N[C@H](C(=O)N[C@@H](CC(N)=O)C(=O)N[C@H](C(=O)NCC(=O)N[C@@H](CCCNC(=N)N)C(=O)N[C@@H](CC(N)=O)C(=O)N[C@H](C(=O)N[C@@H](Cc1ccc(O)cc1)C(N)=O)[C@@H](C)O)C(C)C)[C@@H](C)O, also called compound 85)
3 | 5580 pM | 425 pM | 13.1 | K([γGlu-C20 diacid])CNTATCATQRLAEFLRHSSPNFGAIPSSTNVGSHTY-NH2 (disulfide 2-7; N-terminus assumed; SMILES CC[C@H](C)[C@H](NC(=O)[C@H](C)NC(=O)CNC(=O)[C@H](Cc1ccccc1)NC(=O)[C@H](CC(N)=O)NC(=O)[C@@H]1CCCN1C(=O)[C@H](CO)NC(=O)[C@H](CO)NC(=O)[C@H](Cc1c[nH]cn1)NC(=O)[C@H](CCCNC(=N)N)NC(=O)[C@H](CC(C)C)NC(=O)[C@H](Cc1ccccc1)NC(=O)[C@H](CCC(=O)O)NC(=O)[C@H](C)NC(=O)[C@H](CC(C)C)NC(=O)[C@H](CCCNC(=N)N)NC(=O)[C@H](CCC(N)=O)NC(=O)[C@@H](NC(=O)[C@H](C)NC(=O)[C@@H]1CSSC[C@H](NC(=O)[C@@H](N)CCCCNC(=O)CC[C@H](NC(=O)CCCCCCCCCCCCCCCCCCC(=O)O)C(=O)O)C(=O)N[C@@H](CC(N)=O)C(=O)N[C@@H]([C@@H](C)O)C(=O)N[C@@H](C)C(=O)N[C@@H]([C@@H](C)O)C(=O)N1)[C@@H](C)O)C(=O)N1CCC[C@H]1C(=O)N[C@@H](CO)C(=O)N[C@@H](CO)C(=O)N[C@H](C(=O)N[C@@H](CC(N)=O)C(=O)N[C@H](C(=O)NCC(=O)N[C@@H](CO)C(=O)N[C@@H](Cc1c[nH]cn1)C(=O)N[C@H](C(=O)N[C@@H](Cc1ccc(O)cc1)C(N)=O)[C@@H](C)O)C(C)C)[C@@H](C)O)
4 | 1450 pM | 101 pM | 14.4 | K([γGlu-C20 diacid])CNTATCATQRLAEFLRHSSPNFGAIPSSTNVGPHTY-NH2 (disulfide 2-7)
5 | 6380 pM | 376 pM | 17 | K([γGlu-C20 diacid])CNTATCATQRLAEFLRHSSPNFGAIPSSTNVGPRTY-NH2 (disulfide 2-7; N-terminus assumed; SMILES CC[C@H](C)[C@H](NC(=O)[C@H](C)NC(=O)CNC(=O)[C@H](Cc1ccccc1)NC(=O)[C@H](CC(N)=O)NC(=O)[C@@H]1CCCN1C(=O)[C@H](CO)NC(=O)[C@H](CO)NC(=O)[C@H](Cc1c[nH]cn1)NC(=O)[C@H](CCCNC(=N)N)NC(=O)[C@H](CC(C)C)NC(=O)[C@H](Cc1ccccc1)NC(=O)[C@H](CCC(=O)O)NC(=O)[C@H](C)NC(=O)[C@H](CC(C)C)NC(=O)[C@H](CCCNC(=N)N)NC(=O)[C@H](CCC(N)=O)NC(=O)[C@@H](NC(=O)[C@H](C)NC(=O)[C@@H]1CSSC[C@H](NC(=O)[C@@H](N)CCCCNC(=O)CC[C@H](NC(=O)CCCCCCCCCCCCCCCCCCC(=O)O)C(=O)O)C(=O)N[C@@H](CC(N)=O)C(=O)N[C@@H]([C@@H](C)O)C(=O)N[C@@H](C)C(=O)N[C@@H]([C@@H](C)O)C(=O)N1)[C@@H](C)O)C(=O)N1CCC[C@H]1C(=O)N[C@@H](CO)C(=O)N[C@@H](CO)C(=O)N[C@H](C(=O)N[C@@H](CC(N)=O)C(=O)N[C@H](C(=O)NCC(=O)N1CCC[C@H]1C(=O)N[C@@H](CCCNC(=N)N)C(=O)N[C@H](C(=O)N[C@@H](Cc1ccc(O)cc1)C(N)=O)[C@@H](C)O)C(C)C)[C@@H](C)O)
6 | 3940 pM | 161 pM |  | K([γGlu-C20 diacid])CNTATCATQRLANFLRHSSPNFGAIPSSTNVGRNTY-NH2 (disulfide 2-7; N-terminus assumed; SMILES CC[C@H](C)[C@H](NC(=O)[C@H](C)NC(=O)CNC(=O)[C@H](Cc1ccccc1)NC(=O)[C@H](CC(N)=O)NC(=O)[C@@H]1CCCN1C(=O)[C@H](CO)NC(=O)[C@H](CO)NC(=O)[C@H](Cc1c[nH]cn1)NC(=O)[C@H](CCCNC(=N)N)NC(=O)[C@H](CC(C)C)NC(=O)[C@H](Cc1ccccc1)NC(=O)[C@H](CC(N)=O)NC(=O)[C@H](C)NC(=O)[C@H](CC(C)C)NC(=O)[C@H](CCCNC(=N)N)NC(=O)[C@H](CCC(N)=O)NC(=O)[C@@H](NC(=O)[C@H](C)NC(=O)[C@@H]1CSSC[C@H](NC(=O)[C@@H](N)CCCCNC(=O)CC[C@H](NC(=O)CCCCCCCCCCCCCCCCCCC(=O)O)C(=O)O)C(=O)N[C@@H](CC(N)=O)C(=O)N[C@@H]([C@@H](C)O)C(=O)N[C@@H](C)C(=O)N[C@@H]([C@@H](C)O)C(=O)N1)[C@@H](C)O)C(=O)N1CCC[C@H]1C(=O)N[C@@H](CO)C(=O)N[C@@H](CO)C(=O)N[C@H](C(=O)N[C@@H](CC(N)=O)C(=O)N[C@H](C(=O)NCC(=O)N[C@@H](CCCNC(=N)N)C(=O)N[C@@H](CC(N)=O)C(=O)N[C@H](C(=O)N[C@@H](Cc1ccc(O)cc1)C(N)=O)[C@@H](C)O)C(C)C)[C@@H](C)O, also called compound 79) [N^ε1-[(4S)-4-carboxy-4-(19-carboxynonadecanoylamino)butanoyl]-[Arg17,Pro21,Pro27,Arg34]-h-amylin]
7 | 3640 pM | 146 pM | 24.9 | K([γGlu-C20 diacid])CNTATCATQRLADFLRHSSPNFGAIPSSTNVGPRTY-NH2 (disulfide 2-7; N-terminus assumed; SMILES CC[C@H](C)[C@H](NC(=O)[C@H](C)NC(=O)CNC(=O)[C@H](Cc1ccccc1)NC(=O)[C@H](CC(N)=O)NC(=O)[C@@H]1CCCN1C(=O)[C@H](CO)NC(=O)[C@H](CO)NC(=O)[C@H](Cc1c[nH]cn1)NC(=O)[C@H](CCCNC(=N)N)NC(=O)[C@H](CC(C)C)NC(=O)[C@H](Cc1ccccc1)NC(=O)[C@H](CC(=O)O)NC(=O)[C@H](C)NC(=O)[C@H](CC(C)C)NC(=O)[C@H](CCCNC(=N)N)NC(=O)[C@H](CCC(N)=O)NC(=O)[C@@H](NC(=O)[C@H](C)NC(=O)[C@@H]1CSSC[C@H](NC(=O)[C@@H](N)CCCCNC(=O)CC[C@H](NC(=O)CCCCCCCCCCCCCCCCCCC(=O)O)C(=O)O)C(=O)N[C@@H](CC(N)=O)C(=O)N[C@@H]([C@@H](C)O)C(=O)N[C@@H](C)C(=O)N[C@@H]([C@@H](C)O)C(=O)N1)[C@@H](C)O)C(=O)N1CCC[C@H]1C(=O)N[C@@H](CO)C(=O)N[C@@H](CO)C(=O)N[C@H](C(=O)N[C@@H](CC(N)=O)C(=O)N[C@H](C(=O)NCC(=O)N1CCC[C@H]1C(=O)N[C@@H](CCCNC(=N)N)C(=O)N[C@H](C(=O)N[C@@H](Cc1ccc(O)cc1)C(N)=O)[C@@H](C)O)C(C)C)[C@@H](C)O)
